Among the data in doi:10.1101/2025.07.23.666440 are stoichiometry N values, retold here.

In the experiment the target is PANA_2924 C-terminal domain after TEV cleavage of the His-TEV tag (Pantoea ananatis LMG 20103) (UniProt D4GKQ2). The experiment in a line: SEC. Background: Size exclusion chromatography separates by hydrodynamic size, large species first.

What is called stoichiometry N is the number of molecules, sites or subunits per partner or assembly. On to “PANA_2923 immunity protein (natural protein)”, for which the stoichiometry N amounted to 1.
